Results: a protein production outcome set (Wang et al. 2014)

Assay: label from the status in PepcDB records

Sequence: MDELKLYTYIAVFSTFALYFAIAWWARAGSTSDFYVAGGGITPMQNGMAIGADWMSAASFISMAGLIAFLGYGGSVFLMGWTGGYVLLAMLLAPYMRKHGKFTVPEFIFDRYYSKTARIVAVACLIIASLTYIIGQMKGVGVAFSRFLEVDYGLGLGIGMFVVWVYAVLGGMKGITYTQIAQYVVMIFAYTIPAIFISLQLTGNPIPQLGLGSTLADGSGVYLLDKLDMVVTDLGFKEYTTSNLGGTLNMFAYTISLMIGTAGLPHVIMRFFTVPSVQAARQSAGYALVFIGLLYTVAPAVGAMARLNLMNTIEPTAGQNLVYDERPQWFKDWEKTGLLKFEDKNGDGKIQYTSNATDQTVTKINTMTGKEIVVVPNEMVKVDRDIMVLANPAIANLPNWVIALVAAGGLAAALSTAAGLLLAISSSISHDLMKGVLTPDLSEKNELLAGRVVMTIAILVSGYLGLHPPGFAAGTVALAFGLAASSIFPALMMGIFSKKMSGTAAISGMVAGIGVTMMYVFQHKGIMFIPGTSFLGDMGKDWFFGISPNAFGAVGAIVNFGVAFIVLQFTGPCPANIVAMVENMRAPGDCAAAHDH
- protein production: failed

Sequence: MNLASIIGWGVGFGAILISMAFTPTGLGVFWDLSSVFITVVGSFSALMASSEVVAVKKIPTYLGFFFRRNSYAKVSIIKILVELSEKARKEGLLSLDDELEQINDPFFKSGMRLVVDGADPEVIRTMLYLELDQMQERHKVGSDLFKTWAKLAPAFGMTGTLIGLVALLGNLEDKSALGSSMAVALITTLYGTIMANLMFTPVQLKLEKIDTEEAAVKTMIIEGVLSIQSGDNPRILEQKLMTFLTPKDRSQLNSSIGGE
- protein production: failed

Sequence: MLICNDKSNPKTLLEEIMALRPWRKGPFEISQIKIDSEWDSSIKWDLVKNATPLKDKVVADVGCNNGYYLFKMLEHGPKSLVGFDPGVLVKKQFEFLAPFFDKEKKIIYESLGVEDLHEKYPNAFDVIFCLGVLYHRKSPLEALKALYHALKIKGELVLDTLIIDSPLDIALCPKKTYAKMKNVYFIPSVSALKGWCERVGFENFEILSVLKTTPKEQRKTDFILGQSLEDFLDKTDPSKTLEGYDAPLRGYFKMLK
- protein production: failed

Sequence: MAFLTNDDVVLICDKNYDCPTKIQSVRQKDTTCVAFRPWSQTCEFAVGCAAGICLWSDSRRLNANRNIRRMMGTHHLQVLQDKGHNYVTSMQWNEDGTILVTAAFGSSHIMLWEPDCQQKIRLIPNPKSLGSFSLLRFSPDFHVLFCASCDAGASLCQLNRSKWKLKQILGQQRIQSAVWTTCGSTLLYACYGSTRVYSCTSDGEDSVFLRPQSIWRVQLIMDLQLVTTCAGQRLCCGEPQCLAMDPLGIYMASIFKEQSFVLLCILHTSRWGNVKLLPVEFIYCDMDGDQYPAYISFGVLKAEIRFLIIAWNTGHFQRYDITAQCFRDAQLYHNIN
- protein production: failed

Sequence: MHNDQEISDANRDWWDSDAQRYHNDHAAYLNGFHWCPEMLPEREAHLLGDISGLNVLEIGCGSAPCSRWLFDNYDAFVTGFDLSMGMLRHSPTDVPLTQADAVNLPYKDSSFDIAFSAFGAFPFIENLGPVLKDIARCLKPHGKLVFSTNHPMRWIFPDDPTEIGLCAELSYFDRSYTERDKNGKITYAEFHRTMGDWIELLNASGFIIDRLIEPEWPTNLTETWGQWSPLRGRIFPGTAIFVTHCRLEHHHHHH
- protein production: failed

Sequence: MQFFGGSEISPSPPVPTASGNNAHMMYVFNRNGVCLLYKEWNRPLHTLNPQQDHKLMFGLLFSLKSLTAKMDPVNADKGNLGVPQLPGQGCSFHSFRTNTYKLSFMETPSGIKIILVTHPKTGDLRESLKYIYSLYVEYVVKNPIYSPGSPIKSELFNTALDQYVRSIS
- protein production: failed

Sequence: MDARIVNALIGSVYETIRDVLGIEPKTGKPSTVSHIEIPHSLVTVIGITGGIEGSLIYSFSSETALKVVSAMMGGMEYNQLDELALSAIGELGNMTAGKLAMKLEHLGKHVDITPPTVVSGRDLKIKSFGVILKLPISVFSEEDFDLHLSVKSGG
- protein production: not failed

Sequence: LAVIVVLGCFALGLGGIIGFVHKGEDYQAYQKLQWHTLAPEKIAPLVAQGYTVFVDITSDWCSICQTNKAEVTHREQVVNALMADDIILMQGNWSEADNTIAGYMQYEGIPGTPYNKIYGPRNPNGIVLPSKLTIEAVINGLAQA
- protein production: failed

Sequence: MFKRIGLISIALSLNTISFTSEACSALVFNKNKPATVAVNLDWKYREGAFVIHPRNAMMVSSVDYHSMHPLIWKSQYGSVIFHGGNRFKAGPSADGMNEKGLTASILMLDSSIYPSNSELPALKTTEWVQYILDNFQTVQEVIDDSSNYQLVADTYRGITMNVHLMVSDAEGKSAVFEYLDGKLVIHTQDNLTTPVLTNTDYKLSLALLEEYQDHGGSKALPGGYDSKSRFVRAAHYLKKLPSFIAKEEHIAYAFNGLNVVTQAPGTSSPTQLSMVFDIPTKTIYFRSINEAALRVIPMDSIDFDYLYQPIALNVYQHLSGDVTDKFQPMIG
- protein production: failed

Sequence: MSKAIVLDSHLKEKGSVELPKRYESINSHNLYLYVKHYLSSARANTAKSKNRAEVSGGGRKPWAQKGGGRARAGSITSPVFVGGGVSHGATNNRNYNLKINKKQKRLALEYALEEKAQANKLFVVEKIAIKGVVEDNKRKHLTKEANQMFQALEQRDTLFVCMNMDEYTELAFSNLKKCLIVDVSELNAYLLAAFSSVVMEEAAFQHVVQDKTEE
- protein production: failed

Sequence: MTSAAQLTALLHLASPALPVGAFSYSQGLEAAVEARHVHDEASAARWIAEGLAVLAACEAPLWLLQYADWQAGRLDAVAERDGWFLATRETRELRLETAQMGWSLARLIAQMGWGAPAMRDALAARAAITFPTAFAAAAVALGIEARDGLTAYSFAWVENQVAAAVKAIPLGQAAGQRILFGLHAAVGQAAEDAARRAACHPPELSTFSPGLGVLSARHETQYSRLFRSLEHHHHHH
- protein production: failed

Sequence: MQHNELKTPYFMINEDKLIANLEKAKQLKEISGVKLVLALKCFSTWGVFDIIKPYLDGTTSSGPFEVKLGYETFGGETHAYSVGYSEDDVREVADICDKMIFNSQSQLAAYRHIVEGKASIGLRLNPGVSYAGQDLANPARKFSRLGVQADHIKPEVFEGIDGVMFHMNCENKDVDAFIGLLDAISEQFGEYLNKLDWVSMGGGVFFTWPGYDIEKLGLALKAFSEKHGVQMYLEPGEAIITKTTDLVVTVVDIVENVKKTAIVDSATEAHRLDTLIYNEPASILEASDNGEHEYVIGSCSCLAGDQFCVANFDQPLEIGQRLHILDSAGYTMVKLNWFNGLRMPSVYCERSSGEIQKLNEFDYSDFKRSLSQWSVK
- protein production: failed

Sequence: MDPSEYPFDIKAYKRQSEIEEMYIINRFRERRNKIGEDYPPHLSNSDNYFTQRYDAAKKEGISPLPKYTTTMRMFAYGVAADAVDEYSKIGGTTTLECLRRFCKGIIKLYETEYLRAPTQDDLQRILRVSEMRGFPGIIGSINCMQWEWKTCPTVWEGNTTRVNFFVSQHPYNIAYYLADGIYPSYPTFVKSIRLPQSEPDKLFVQRQEACHKDIERAFGVLQARFKIIRKPAGLWDIFELAIIMRSCKWVEYTTTILDPSATPICKSCA
- protein production: failed

Sequence: MSGSGKTITQMKSTAILAPVIAVILILSACGKPMDAQALVAEAKQYQQQGNDKAAIIQLKNALQQSPNDPEIRYLLGTLYNREGDIQSAEKELNKALDLGMDPVKVLPGLSRAWLGMGKFQQVLDETGKLSDKGNFAELLALRGNASLALGKFEEAKVLFEQALQDKPGFSDALTGLARYSLARNDIESAMNFSEEAVKLNPENSDAVLFRGDLLRAQNKIDEALADYDKAIKLNPESEAAYINRATISISTKKFEAAQADLDAVRKIAPGSLLAAYTQALLDFSQGKHAVALETLQRILSSAPGHLPSVLLAGATQFALGSFPQAGQYVEQYLKAIPNNLYAIKLMASIQLKNNQVKQAITTLTPALKSVQQDPQLFALAGEAYMRSKDFTKASEYFEKAGELAPDNASLYTALAMSKMGQGDSKSAIADLEQAAQLDDQSGRAGVMLVLTHLQLREFDKALKAVESQLAEQPDNPLLHNLKGGIYLGKKDLAKARSSFNQALSIQSDYFPAISNLARIDMQENHPEAAQQRFEDVLKRDKKNVQAMNALAGIALARGNKEEATGWLEKASRENPDELQPALQLGAHYLAVNDPGKSLALAKKLQGIHPDNLSIVELLARSYLATGDKDAALENFQKLAARLPDSAPAQLQLAQIYSSMQNNKAAAGSLKKALTIKPDLWEAKLMQAQLAVAADRVEDAFNISHDLQKQHEKLPVGFELEGDLQMRQKNAAAAATAYEKALSRQKNSQLLIKLHTALSQSGKEKQADQRLNQWLKENPTDAVTRTYLAGVYLASKKYDPAIKEYQTILKQHPDHAATLNNLAWVYQQKKDPVALEYAEKAYKQAPDSPAILDTLGWILIEKGDAERGTSLLQKAVTAVPEAAEIRYHYAVGLFKSGNKAEARQELEKLLGGDKPFPQRDDAKKLLESL
- protein production: failed
